First the molecules themselves.
B1: GLS3000 P95E one-arm antibody (antibody, human IgG1, kappa, L234A L235A, N297A, name in Kabat numbering)
heavy: QVQLVESGGGVVQPGRSLRLSCAASGFTFSNAWMHWVRQAPGKGLEWVAQIKAKSNNYATYYAESVKGRFTISRDDSKNSLYLQMNSLKTEDTAVYYCRYVHYGAYYGVDAWGQGTTVTVSSASTKGPSVFPLAPSSKSTSGGTAALGCLVKDYFPEPVTVSWNSGALTSGVHTFPAVLQSSGLYSLSSVVTVPSSSLGTQTYICNVNHKPSNTKVDKKVEPKSCDKTHTCPPCPAPEAAGGPSVFLFPPKPKDTLMISRTPEVTCVVVDVSHEDPEVKFNWYVDGVEVHNAKTKPREEQYASTYRVVSVLTVLHQDWLNGKEYKCKVSNKALPAPIEKTISKAKGQPREPQVYTLPPSRCELTKNQVSLSCAVKGFYPSDIAVEWESNGQPENNYKTTPPVLDSDGSFFLVSKLTVDKSRWQQGNVFSCSVMHEALHNHYTQKSLSLSPDYKDDDDK
chain: EPKSSDKTHTCPPCPAPELLGGPSVFLFPPKPKDTLMISRTPEVTCVVVDVSHEDPEVKFNWYVDGVEVHNAKTKPREEQYNSTYRVVSVLTVLHQDWLNGKEYKCKVSNKALPAPIEKTISKAKGQPREPQVCTLPPSRDELTKNQVSLWCLVKGFYPSDIAVEWESNGQPENNYKTTPPVLDSDGSFFLYSKLTVDKSRWQQGNVFSCSVMHEALHNRYTQKSLSLSP
light: DIVMTQSPLSLPVTPGEPASISCRSSQSLVHSNRNTYLHWYQQKPGQAPRLLIYKVSNRFSGVPDRFSGSGSGTDFTLKISRVEAEDVGVYYCGQGTQVEYTFGQGTKLEIKRTVAAPSVFIFPPSDEQLKSGTASVVCLLNNFYPREAKVQWKVDNALQSGNSQESVTEQDSKDSTYSLSSTLTLSKADYEKHKVYACEVTHQGLSSPVTKSFNRGEC
B2: GLS3000 P95L one-arm antibody (antibody, human IgG1, kappa, L234A L235A, N297A, name in Kabat numbering)
heavy: QVQLVESGGGVVQPGRSLRLSCAASGFTFSNAWMHWVRQAPGKGLEWVAQIKAKSNNYATYYAESVKGRFTISRDDSKNSLYLQMNSLKTEDTAVYYCRYVHYGAYYGVDAWGQGTTVTVSSASTKGPSVFPLAPSSKSTSGGTAALGCLVKDYFPEPVTVSWNSGALTSGVHTFPAVLQSSGLYSLSSVVTVPSSSLGTQTYICNVNHKPSNTKVDKKVEPKSCDKTHTCPPCPAPEAAGGPSVFLFPPKPKDTLMISRTPEVTCVVVDVSHEDPEVKFNWYVDGVEVHNAKTKPREEQYASTYRVVSVLTVLHQDWLNGKEYKCKVSNKALPAPIEKTISKAKGQPREPQVYTLPPSRCELTKNQVSLSCAVKGFYPSDIAVEWESNGQPENNYKTTPPVLDSDGSFFLVSKLTVDKSRWQQGNVFSCSVMHEALHNHYTQKSLSLSPDYKDDDDK
chain: EPKSSDKTHTCPPCPAPELLGGPSVFLFPPKPKDTLMISRTPEVTCVVVDVSHEDPEVKFNWYVDGVEVHNAKTKPREEQYNSTYRVVSVLTVLHQDWLNGKEYKCKVSNKALPAPIEKTISKAKGQPREPQVCTLPPSRDELTKNQVSLWCLVKGFYPSDIAVEWESNGQPENNYKTTPPVLDSDGSFFLYSKLTVDKSRWQQGNVFSCSVMHEALHNRYTQKSLSLSP
light: DIVMTQSPLSLPVTPGEPASISCRSSQSLVHSNRNTYLHWYQQKPGQAPRLLIYKVSNRFSGVPDRFSGSGSGTDFTLKISRVEAEDVGVYYCGQGTQVLYTFGQGTKLEIKRTVAAPSVFIFPPSDEQLKSGTASVVCLLNNFYPREAKVQWKVDNALQSGNSQESVTEQDSKDSTYSLSSTLTLSKADYEKHKVYACEVTHQGLSSPVTKSFNRGEC
B3: GLS3000 P95S one-arm antibody (antibody, human IgG1, kappa, L234A L235A, N297A, name in Kabat numbering)
heavy: QVQLVESGGGVVQPGRSLRLSCAASGFTFSNAWMHWVRQAPGKGLEWVAQIKAKSNNYATYYAESVKGRFTISRDDSKNSLYLQMNSLKTEDTAVYYCRYVHYGAYYGVDAWGQGTTVTVSSASTKGPSVFPLAPSSKSTSGGTAALGCLVKDYFPEPVTVSWNSGALTSGVHTFPAVLQSSGLYSLSSVVTVPSSSLGTQTYICNVNHKPSNTKVDKKVEPKSCDKTHTCPPCPAPEAAGGPSVFLFPPKPKDTLMISRTPEVTCVVVDVSHEDPEVKFNWYVDGVEVHNAKTKPREEQYASTYRVVSVLTVLHQDWLNGKEYKCKVSNKALPAPIEKTISKAKGQPREPQVYTLPPSRCELTKNQVSLSCAVKGFYPSDIAVEWESNGQPENNYKTTPPVLDSDGSFFLVSKLTVDKSRWQQGNVFSCSVMHEALHNHYTQKSLSLSPDYKDDDDK
chain: EPKSSDKTHTCPPCPAPELLGGPSVFLFPPKPKDTLMISRTPEVTCVVVDVSHEDPEVKFNWYVDGVEVHNAKTKPREEQYNSTYRVVSVLTVLHQDWLNGKEYKCKVSNKALPAPIEKTISKAKGQPREPQVCTLPPSRDELTKNQVSLWCLVKGFYPSDIAVEWESNGQPENNYKTTPPVLDSDGSFFLYSKLTVDKSRWQQGNVFSCSVMHEALHNRYTQKSLSLSP
light: DIVMTQSPLSLPVTPGEPASISCRSSQSLVHSNRNTYLHWYQQKPGQAPRLLIYKVSNRFSGVPDRFSGSGSGTDFTLKISRVEAEDVGVYYCGQGTQVSYTFGQGTKLEIKRTVAAPSVFIFPPSDEQLKSGTASVVCLLNNFYPREAKVQWKVDNALQSGNSQESVTEQDSKDSTYSLSSTLTLSKADYEKHKVYACEVTHQGLSSPVTKSFNRGEC
B4: GLS3000 P95G one-arm antibody (antibody, human IgG1, kappa, L234A L235A, N297A, name in Kabat numbering)
heavy: QVQLVESGGGVVQPGRSLRLSCAASGFTFSNAWMHWVRQAPGKGLEWVAQIKAKSNNYATYYAESVKGRFTISRDDSKNSLYLQMNSLKTEDTAVYYCRYVHYGAYYGVDAWGQGTTVTVSSASTKGPSVFPLAPSSKSTSGGTAALGCLVKDYFPEPVTVSWNSGALTSGVHTFPAVLQSSGLYSLSSVVTVPSSSLGTQTYICNVNHKPSNTKVDKKVEPKSCDKTHTCPPCPAPEAAGGPSVFLFPPKPKDTLMISRTPEVTCVVVDVSHEDPEVKFNWYVDGVEVHNAKTKPREEQYASTYRVVSVLTVLHQDWLNGKEYKCKVSNKALPAPIEKTISKAKGQPREPQVYTLPPSRCELTKNQVSLSCAVKGFYPSDIAVEWESNGQPENNYKTTPPVLDSDGSFFLVSKLTVDKSRWQQGNVFSCSVMHEALHNHYTQKSLSLSPDYKDDDDK
chain: EPKSSDKTHTCPPCPAPELLGGPSVFLFPPKPKDTLMISRTPEVTCVVVDVSHEDPEVKFNWYVDGVEVHNAKTKPREEQYNSTYRVVSVLTVLHQDWLNGKEYKCKVSNKALPAPIEKTISKAKGQPREPQVCTLPPSRDELTKNQVSLWCLVKGFYPSDIAVEWESNGQPENNYKTTPPVLDSDGSFFLYSKLTVDKSRWQQGNVFSCSVMHEALHNRYTQKSLSLSP
light: DIVMTQSPLSLPVTPGEPASISCRSSQSLVHSNRNTYLHWYQQKPGQAPRLLIYKVSNRFSGVPDRFSGSGSGTDFTLKISRVEAEDVGVYYCGQGTQVGYTFGQGTKLEIKRTVAAPSVFIFPPSDEQLKSGTASVVCLLNNFYPREAKVQWKVDNALQSGNSQESVTEQDSKDSTYSLSSTLTLSKADYEKHKVYACEVTHQGLSSPVTKSFNRGEC
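Also: Light-chain single-residue variant antibodies injected over amine-coupled CD3ε homodimer on a CM4 chip at 25 °C, bound amount divided by that of the GLS3000-containing antibody.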

T1 sequence (P07766 23-126 limits assumed): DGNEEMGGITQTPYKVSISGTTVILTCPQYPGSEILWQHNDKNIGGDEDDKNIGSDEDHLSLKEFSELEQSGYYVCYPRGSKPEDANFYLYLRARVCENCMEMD

The assay concerns the target T1, CD3ε homodimer protein (human, UniProt P07766 23-126, limits assumed).
T1 construct: also called CD3 (CD3ε)
Put plainly: SPR Biacore T200, CD3ε homodimer on chip. (In general: SPR reads the build-up and loss of mass on a sensor chip optically.)
Procedure: Each one-amino acid altered form constructed, expressed, and purified in the paragraph (6-2) was evaluated using Biacore T200 (GE Healthcare Japan Corp.). An appropriate amount of CD3ε homodimer protein was immobilized onto Sensor chip CM4 (GE Healthcare Japan Corp.) by the amine coupling method. Then, the antibody having an appropriate concentration was injected thereto as an analyte and allowed to interact with the CD3ε homodimer protein on the sensor chip. Then, the sensor chip was regenerated by the injection of 10 mmol/L glycine-HCl (pH 1.5). The assay was conducted at 25° C., and HBS-EP+ (GE Healthcare Japan Corp.) was used as a running buffer. […] Each parameter was calculated using Biacore T200 Evaluation Software (GE Healthcare Japan Corp.).
Specifically, when the amount of the GLS3000-containing antibody bound was defined as X and the amount of the L chain one-amino acid altered form bound was defined as Y, a value of Z (ratio of amounts bound)=Y/X was used.
On to B1, for which the “ratio of amount bound vs unaltered GLS3000” value (shortened to “ratio of amount bound”) came to 0.39.

In the case of B2, the “ratio of amount bound” value came out at 0.24.

Regarding B3, the “ratio of amount bound” value came to 0.43.

For the molecule B4, the “ratio of amount bound” value worked out at 0.37.
